In patent US12698507B2, “Methods and compositions for conferring and/or enhancing herbicide tolerance using protoporphyrinogen IX oxidase of various cyanobacteria or variant thereof” (FarmHannong Co., Ltd., priority 2019, dated 2026):
Substitutions are numbered along the chain they refer to. Names and notes keep the numbering of the source.

B1: CyPPO19 V165C + A167C + I408W + F360T: variant of CyPPO19 PPO protein (SEQ ID NO: 1) (protein)
chain: MSEVDVAIVGGGLSGLSLAWRLQQSAPQYSVVLLEASDRLGGNITTQTAEGFVWELGPNSFAPTPALLQLIAEVGLQSELIRGDRHLPRYIYWRGQLYPLQPTRPLALATSNLLSPWGKVRAALGALGFVPPYLGSGDESVNSFFRRHLGQEVAERLVAPFVSGCYCGDPQQLSAAAAFRRIAQLEKLGGGLIAGALHLRRQQAPKPKPPTSVQMRPGELGSFKEGLAALPRAIAQQLKAPIHLQTPVQEITPDPKGGYLLRSGEQTWRARSVVLATPAYQTAELVAPFQPAIARVLATIPYPTVACVVLAYPAGLGRSVRPGFGVLIPRSQGIRTLGTIWSSCLFPQRTPAGWQVFTSTIGGATDPDLASLSEEAIVQQVQQDLNRLLDLPAAKARLLGMKVWRRAWPQYMVGYPEQWQQVTHALSQTPGLFLCSNYAEGVALGDRVEHGNRTAAAVAAYLSGGQP
modifications: Synthetic_PPO of Thermosynechococcus elongatus PKUAC-SCTE542 (comprising GenBank No. CP032152.1)
B2: CyPPO19 A167L + F360M: variant of CyPPO19 PPO protein (SEQ ID NO: 1) (protein)
chain: B1 chain with C165V, C167L, T360M, W408I
modifications: Synthetic_PPO of Thermosynechococcus elongatus PKUAC-SCTE542 (comprising GenBank No. CP032152.1)
B3: CyPPO19 A167C + F360I: variant of CyPPO19 PPO protein (SEQ ID NO: 1) (protein)
chain: B1 chain with C165V, T360I, W408I
modifications: Synthetic_PPO of Thermosynechococcus elongatus PKUAC-SCTE542 (comprising GenBank No. CP032152.1)
B4: CyPPO19 V165S + F360T: variant of CyPPO19 PPO protein (SEQ ID NO: 1) (protein)
chain: B1 chain with C165S, C167A, W408I
modifications: Synthetic_PPO of Thermosynechococcus elongatus PKUAC-SCTE542 (comprising GenBank No. CP032152.1)
B5: CyPPO19 A167L + V305M + I408R + F360M: variant of CyPPO19 PPO protein (SEQ ID NO: 1) (protein)
chain: B1 chain with C165V, C167L, V305M, T360M, W408R
modifications: Synthetic_PPO of Thermosynechococcus elongatus PKUAC-SCTE542 (comprising GenBank No. CP032152.1)
B6: CyPPO19 A167I + V305L + L327T + F360V: variant of CyPPO19 PPO protein (SEQ ID NO: 1) (protein)
chain: B1 chain with C165V, C167I, V305L, L327T, T360V, W408I
modifications: Synthetic_PPO of Thermosynechococcus elongatus PKUAC-SCTE542 (comprising GenBank No. CP032152.1)
B7: CyPPO19 V165S + F360L: variant of CyPPO19 PPO protein (SEQ ID NO: 1) (protein)
chain: B1 chain with C165S, C167A, T360L, W408I
modifications: Synthetic_PPO of Thermosynechococcus elongatus PKUAC-SCTE542 (comprising GenBank No. CP032152.1)
B8: CyPPO19 A167I + F360L: variant of CyPPO19 PPO protein (SEQ ID NO: 1) (protein)
chain: B1 chain with C165V, C167I, T360L, W408I
modifications: Synthetic_PPO of Thermosynechococcus elongatus PKUAC-SCTE542 (comprising GenBank No. CP032152.1)
B9: CyPPO19 A167L + F360T: variant of CyPPO19 PPO protein (SEQ ID NO: 1) (protein)
chain: B1 chain with C165V, C167L, W408I
modifications: Synthetic_PPO of Thermosynechococcus elongatus PKUAC-SCTE542 (comprising GenBank No. CP032152.1)
B10: CyPPO19 V305L + L327T + I408W + F360V: variant of CyPPO19 PPO protein (SEQ ID NO: 1); printed 305L in Table 9 (protein)
chain: B1 chain with C165V, C167A, V305L, L327T, T360V
modifications: Synthetic_PPO of Thermosynechococcus elongatus PKUAC-SCTE542 (comprising GenBank No. CP032152.1)

Each molecule was assayed on PPO-deficient BT3 E. coli (ΔPPO) (assay: PPO-inhibiting herbicide tolerance test of PPO variants in E. coli (growth on herbicide-containing LB agar)). Conditions: CyPPO19 variants in BT3 (ΔPPO) E. coli; LB agar with 0 to 2,000 μM herbicide, 37° C., dark, 16-20 hours.
Assay type: cell-based
How it was run: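 Transformants were grown to OD600 0.5–1, adjusted to OD600=0.5 and spotted as 10-fold dilutions on LB agar with ampicillin (100 μg/mL) and 0 to 2,000 μM herbicide. Plates were kept at 37° C in the dark for 16-20 hours; growth was scored relative to wild type, one '+' per 10-fold resistance.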
B1 was tested, and the “tolerance level relative to wild type, Carfentrazone” value was “+ (‘+’ per each 10-fold resistance)”, the “tolerance level relative to wild type, Flumioxazin” value was “++++ (‘+’ per each 10-fold resistance)” and the “tolerance level relative to wild type, Fomesafen” value was “++ (‘+’ per each 10-fold resistance)”. The “tolerance level relative to wild type, Oxyfluorfen” value was “++ (‘+’ per each 10-fold resistance)”, the “tolerance level relative to wild type, Saflufenacil” value was “++++ (‘+’ per each 10-fold resistance)” and the “tolerance level relative to wild type, Sulfentrazone” value was “+++ (‘+’ per each 10-fold resistance)”. For the same molecule, the “tolerance level relative to wild type, Tiafenacil” value was “++++ (‘+’ per each 10-fold resistance)”. B2 was tested, and the “tolerance level relative to wild type, Carfentrazone” value was “+ (‘+’ per each 10-fold resistance)”, the “tolerance level relative to wild type, Flumioxazin” value was “++++ (‘+’ per each 10-fold resistance)” and the “tolerance level relative to wild type, Fomesafen” value was “++ (‘+’ per each 10-fold resistance)”. For the same molecule, the “tolerance level relative to wild type, Oxyfluorfen” value was “+ (‘+’ per each 10-fold resistance)”, the “tolerance level relative to wild type, Saflufenacil” value was “++++ (‘+’ per each 10-fold resistance)” and the “tolerance level relative to wild type, Sulfentrazone” value was “++ (‘+’ per each 10-fold resistance)”. For the same molecule, the “tolerance level relative to wild type, Tiafenacil” value was “++++ (‘+’ per each 10-fold resistance)”. In the case of B3, the “tolerance level relative to wild type, Carfentrazone” value is reported as “+ (‘+’ per each 10-fold resistance)”, the “tolerance level relative to wild type, Flumioxazin” value is reported as “++++ (‘+’ per each 10-fold resistance)” and the “tolerance level relative to wild type, Fomesafen” value is reported as “+ (‘+’ per each 10-fold resistance)”. The “tolerance level relative to wild type, Oxyfluorfen” value was “+ (‘+’ per each 10-fold resistance)”, the “tolerance level relative to wild type, Saflufenacil” value was “+++ (‘+’ per each 10-fold resistance)” and the “tolerance level relative to wild type, Sulfentrazone” value was “++ (‘+’ per each 10-fold resistance)”. For the same molecule, the “tolerance level relative to wild type, Tiafenacil” value was “++++ (‘+’ per each 10-fold resistance)”. B4 was tested, and the “tolerance level relative to wild type, Carfentrazone” value was “+ (‘+’ per each 10-fold resistance)”, the “tolerance level relative to wild type, Flumioxazin” value was “+++ (‘+’ per each 10-fold resistance)” and the “tolerance level relative to wild type, Fomesafen” value was “+ (‘+’ per each 10-fold resistance)”. For the same molecule, the “tolerance level relative to wild type, Oxyfluorfen” value was “+ (‘+’ per each 10-fold resistance)”, the “tolerance level relative to wild type, Saflufenacil” value was “+++ (‘+’ per each 10-fold resistance)” and the “tolerance level relative to wild type, Sulfentrazone” value was “++ (‘+’ per each 10-fold resistance)”. For the same molecule, the “tolerance level relative to wild type, Tiafenacil” value was “++++ (‘+’ per each 10-fold resistance)”. B5 was tested, and the “tolerance level relative to wild type, Carfentrazone” value was “+ (‘+’ per each 10-fold resistance)”, the “tolerance level relative to wild type, Flumioxazin” value was “+++++ (until ‘+++++’ as maximal resistance)” and the “tolerance level relative to wild type, Fomesafen” value was “+++ (‘+’ per each 10-fold resistance)”. The “tolerance level relative to wild type, Oxyfluorfen” value was “+++ (‘+’ per each 10-fold resistance)”, the “tolerance level relative to wild type, Saflufenacil” value was “+++++ (until ‘+++++’ as maximal resistance)” and the “tolerance level relative to wild type, Sulfentrazone” value was “+++++ (until ‘+++++’ as maximal resistance)”. For the same molecule, the “tolerance level relative to wild type, Tiafenacil” value was “+++++ (until ‘+++++’ as maximal resistance)”. B6 was tested, and the “tolerance level relative to wild type, Carfentrazone” value was “+ (‘+’ per each 10-fold resistance)”, the “tolerance level relative to wild type, Flumioxazin” value was “+++++ (until ‘+++++’ as maximal resistance)” and the “tolerance level relative to wild type, Fomesafen” value was “+++ (‘+’ per each 10-fold resistance)”. The “tolerance level relative to wild type, Oxyfluorfen” value was “+++ (‘+’ per each 10-fold resistance)”, the “tolerance level relative to wild type, Saflufenacil” value was “++++ (‘+’ per each 10-fold resistance)” and the “tolerance level relative to wild type, Sulfentrazone” value was “++++ (‘+’ per each 10-fold resistance)”. The “tolerance level relative to wild type, Tiafenacil” value was “+++++ (until ‘+++++’ as maximal resistance)”. In the case of B7, the “tolerance level relative to wild type, Carfentrazone” value is reported as “+ (‘+’ per each 10-fold resistance)”, the “tolerance level relative to wild type, Flumioxazin” value is reported as “++++ (‘+’ per each 10-fold resistance)” and the “tolerance level relative to wild type, Fomesafen” value is reported as “++ (‘+’ per each 10-fold resistance)”. For the same molecule, the “tolerance level relative to wild type, Oxyfluorfen” value was “++ (‘+’ per each 10-fold resistance)”, the “tolerance level relative to wild type, Saflufenacil” value was “++++ (‘+’ per each 10-fold resistance)” and the “tolerance level relative to wild type, Sulfentrazone” value was “+++ (‘+’ per each 10-fold resistance)”. The “tolerance level relative to wild type, Tiafenacil” value was “++++ (‘+’ per each 10-fold resistance)”. In the case of B8, the “tolerance level relative to wild type, Carfentrazone” value is reported as “+ (‘+’ per each 10-fold resistance)”, the “tolerance level relative to wild type, Flumioxazin” value is reported as “+++ (‘+’ per each 10-fold resistance)” and the “tolerance level relative to wild type, Fomesafen” value is reported as “+ (‘+’ per each 10-fold resistance)”. The “tolerance level relative to wild type, Oxyfluorfen” value was “+ (‘+’ per each 10-fold resistance)”, the “tolerance level relative to wild type, Saflufenacil” value was “+++ (‘+’ per each 10-fold resistance)” and the “tolerance level relative to wild type, Sulfentrazone” value was “+ (‘+’ per each 10-fold resistance)”. For the same molecule, the “tolerance level relative to wild type, Tiafenacil” value was “+++ (‘+’ per each 10-fold resistance)”. For B9, the “tolerance level relative to wild type, Carfentrazone” value was “+ (‘+’ per each 10-fold resistance)”, the “tolerance level relative to wild type, Flumioxazin” value was “+++ (‘+’ per each 10-fold resistance)” and the “tolerance level relative to wild type, Fomesafen” value was “+ (‘+’ per each 10-fold resistance)”. The “tolerance level relative to wild type, Oxyfluorfen” value was “+ (‘+’ per each 10-fold resistance)”, the “tolerance level relative to wild type, Saflufenacil” value was “+++ (‘+’ per each 10-fold resistance)” and the “tolerance level relative to wild type, Sulfentrazone” value was “++ (‘+’ per each 10-fold resistance)”. For the same molecule, the “tolerance level relative to wild type, Tiafenacil” value was “+++ (‘+’ per each 10-fold resistance)”. For B10, the “tolerance level relative to wild type, Carfentrazone” value was “+ (‘+’ per each 10-fold resistance)”, the “tolerance level relative to wild type, Flumioxazin” value was “+++++ (until ‘+++++’ as maximal resistance)” and the “tolerance level relative to wild type, Fomesafen” value was “+++ (‘+’ per each 10-fold resistance)”. The “tolerance level relative to wild type, Oxyfluorfen” value was “+++ (‘+’ per each 10-fold resistance)”, the “tolerance level relative to wild type, Saflufenacil” value was “+++++ (until ‘+++++’ as maximal resistance)” and the “tolerance level relative to wild type, Sulfentrazone” value was “+++++ (until ‘+++++’ as maximal resistance)”. The “tolerance level relative to wild type, Tiafenacil” value was “+++++ (until ‘+++++’ as maximal resistance)”.
